Test results published in the RNAGym collection of RNA variant scans (doi:10.1093/nar/gkz1192).

B1: CPEB3 Ribozyme (parent)
chain: UAACAGGGGGCCACAGCAGAAGCGUUCACGUCGCAGCCCCUGUCAGAUUCUGGUGAAUCUGCGAAUUCUGCUGUAUAUCUC

Variants of: B1
Assay: self-cleavage, relative activity (ratio to wild type); higher = more cleavage; in vitro, sequencing
Procedure, shortened: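 CPEB3 self-cleaving ribozyme mutant libraries were made by rounds of error-prone PCR, barcoded, and transcribed in vitro with T7 RNA polymerase for 5 hours at 37°C. Cleavage occurred during transcription and a 15 min DNase I step before EDTA stop. RNAs were reverse transcribed with template switching and Illumina-sequenced, with DNA sequencing mapping barcodes to variants. Relative activity is the variant's cleaved/total read fraction divided by wild type's (minimum 5 reads), averaged across three batches.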

First: C11G A20U
Second: C12U A20G
The self-cleavage of the first is lower: 0.12 for the first, 1.19 for the second.

First: C12U A20U
Second: C11G A21G
The self-cleavage of the first is higher: 0.38 for the first, 0.3 for the second.

Compared with C11G A21C, C12A A28C is higher in self-cleavage: 0.08 for the first, 0.57 for the second.

Going from C12A A28U to C12A A28G, the self-cleavage falls from 0.92 to 0.59.

Going from C11A U69C to C11U G52A, the self-cleavage rises from 0.17 to 0.62.

Going from C11G U76C to C11G U76A, the self-cleavage falls from 0.61 to 0.49.

First: C11G A64U
Second: C11G A64G
The self-cleavage of the first is lower: 0.16 for the first, 0.4 for the second.

Going from C12U A64G to C12U A64U, the self-cleavage falls from 1.41 to 0.83.

Going from C11G A28G to C11G C39A, the self-cleavage rises from 0.24 to 0.38.

Compared with C11G C39G, C11U U78A is higher in self-cleavage: 0.11 for the first, 0.53 for the second.

Going from C11U U78C to C11U A21G, the self-cleavage falls from 0.33 to 0.28.

Going from C11G U78G to C11G U78C, the self-cleavage falls from 0.59 to 0.43.

Compared with C11G U78A, C12A U58C is lower in self-cleavage: 0.8 for the first, 0.54 for the second.

Compared with C12A U26A, C12G U48G is lower in self-cleavage: 1.08 for the first, 0.35 for the second.

Compared with C12A G24U, C11U A28U is higher in self-cleavage: 0.33 for the first, 0.34 for the second.

Compared with C11G G42U, C11G A65G is lower in self-cleavage: 0.37 for the first, 0.21 for the second.

First: C12U
Second: C12A
The self-cleavage of the first is higher: 1.25 for the first, 1.15 for the second.

First: C12G
Second: C11G C44G
The self-cleavage of the first is higher: 0.59 for the first, 0.32 for the second.

First: C11G U80C
Second: C11G U80A
The self-cleavage of the first is lower: 0.55 for the first, 0.76 for the second.

Going from C12A A64G to C12A A64U, the self-cleavage falls from 1.21 to 0.56.

Compared with C11U U31C, C11U U31A is higher in self-cleavage: 0.29 for the first, 0.32 for the second.

Compared with C11U U31G, C12G U31C is higher in self-cleavage: 0.23 for the first, 0.92 for the second.

First: C12G U72A
Second: C11U U74C
The self-cleavage of the first is lower: 0.29 for the first, 0.83 for the second.

Going from C11U U74A to C12A U49C, the self-cleavage falls from 0.96 to 0.63.

First: C12U A75U
Second: C12U A75G
The self-cleavage of the first is lower: 1.28 for the first, 1.3 for the second.

Compared with C12A U48G, C11U G63A is higher in self-cleavage: 0.2 for the first, 0.24 for the second.

Going from C12A U43A to C12G U54C, the self-cleavage falls from 0.99 to 0.51.

Going from C11U C23U to C11G G63U, the self-cleavage rises from 0.24 to 0.66.

Going from C12A A21G to C12G U49C, the self-cleavage falls from 0.73 to 0.16.

Compared with C12U C29U, C11U A57G is lower in self-cleavage: 0.96 for the first, 0.33 for the second.

Going from C12A C62G to C12A C62A, the self-cleavage rises from 0.24 to 0.71.

Going from C12A G19A to C11U U67A, the self-cleavage falls from 0.43 to 0.36.

C11U U67G and C11U U67C are the same in self-cleavage: 0.18 for the first, 0.18 for the second.

Compared with C11A U60C, C12U A28U is higher in self-cleavage: 0.2 for the first, 1.12 for the second.

First: C12U A28G
Second: C12U A28C
The self-cleavage of the first is lower: 0.89 for the first, 0.94 for the second.

Going from C12U A56G to C12G A65U, the self-cleavage falls from 1.13 to 0.1.

First: C12G A65G
Second: C11U U76C
The self-cleavage of the first is lower: 0.18 for the first, 0.43 for the second.

C12G U26C and C12G C29G are the same in self-cleavage: 0.24 for the first, 0.24 for the second.

First: C11G C34G
Second: C11G C81U
The self-cleavage of the first is lower: 0.38 for the first, 0.86 for the second.

First: C11G A47G
Second: C11U C32A
The self-cleavage of the first is higher: 0.61 for the first, 0.2 for the second.

Going from C12U A47U to C12U A47C, the self-cleavage falls from 0.83 to 0.76.

For C12U A47G, the self-cleavage was 1.17.
